Source: IntAct's records for PubMed 20980406

B1: Band 3 anion transport protein (Homo sapiens), P02730 (parent)
chain: MEELQDDYEDMMEENLEQEEYEDPDIPESQMEEPAAHDTEATATDYHTTSHPGTHKVYVELQELVMDEKNQELRWMEAARWVQLEENLGENGAWGRPHLSHLTFWSLLELRRVFTKGTVLLDLQETSLAGVANQLLDRFIFEDQIRPQDREELLRALLLKHSHAGELEALGGVKPAVLTRSGDPSQPLLPQHSSLETQLFCEQGDGGTEGHSPSGILEKIPPDSEATLVLVGRADFLEQPVLGFVRLQEAAELEAVELPVPIRFLFVLLGPEAPHIDYTQLGRAAATLMSERVFRIDAYMAQSRGELLHSLEGFLDCSLVLPPTDAPSEQALLSLVPVQRELLRRRYQSSPAKPDSSFYKGLDLNGGPDDPLQQTGQLFGGLVRDIRRRYPYYLSDITDAFSPQVLAAVIFIYFAALSPAITFGGLLGEKTRNQMGVSELLISTAVQGILFALLGAQPLLVVGFSGPLLVFEEAFFSFCETNGLEYIVGRVWIGFWLILLVVLVVAFEGSFLVRFISRYTQEIFSFLISLIFIYETFSKLIKIFQDHPLQKTYNYNVLMVPKPQGPLPNTALLSLVLMAGTFFFAMMLRKFKNSSYFPGKLRRVIGDFGVPISILIMVLVDFFIQDTYTQKLSVPDGFKVSNSSARGWVIHPLGLRSEFPIWMMFASALPALLVFILIFLESQITTLIVSKPERKMVKGSGFHLDLLLVVGMGGVAALFGMPWLSATTVRSVTHANALTVMGKASTPGAAAQIQEVKEQRISGLLVAVLVGLSILMEPILSRIPLAVLFGIFLYMGVTSLSGIQLFDRILLLFKPPKYHPDVPYVKRVKTWRMHLFTGIQIICLAVLWVVKSTPASLALPFVLILTVPLRRVLLPLIFRNVELQCLDADDAKATFDEEEGRDEYDEVAMPV

Variants of: B1
Conditions: with g3p_rabit GAPDH

Question: Y904A was tested. Which “effect of a mutation on the interaction” value did it give?
Answer: decreasing interaction strength

Question: With D905A;E906A as the variant, how does the “effect of a mutation on the interaction” value read?
Answer: with no effect

Question: With D902A;E903A as the variant, how does the “effect of a mutation on the interaction” value read?
Answer: decreasing interaction strength
